Assay results: patent US20210155711A1
pKd: −log10 of the molar value.

What was measured:
[1] = target: human FcγRI (recombinant, polyhistidine-tagged) (human) (UniProt P12314); assay: SPR (BIACORE 3000), His-tagged receptor captured on anti-His IgG, antibody injected; 1:1 steady state fit
[2] = target: recombinant human FcRn (transmembrane and cytoplasmic domains replaced with a poly-histidine tag) (human) (UniProt P55899); assay: … bead competition: unlabelled test antibody against biotinylated human IgG1 CNT06234 for recombinant FcRn, pH 6.4
[3] = target: human FcγRIIIa (recombinant, Example 1) (human) (UniProt P08637); assay: SPR (BIACORE 3000), His-tagged receptor captured on anti-His IgG, antibody injected; 1:1 steady state fit
[4] = target: human FcγRIIa (recombinant, Example 1; allotype not stated) (human) (UniProt P12318); assay: as above
[5] = target: human FcγRIIa (recombinant, Example 1; allotype not stated) (human) (UniProt P12318); assay: … bead competition: unlabelled test antibody against a biotinylated control antibody (human IgG1 CNT06234 by paragraph 15/paragraph 85; paragraph 86 says 'against IgG2') for recombinant FcgRIIa
[6] = target: human FcγRI (recombinant, polyhistidine-tagged) (human) (UniProt P12314); assay: SPR (BIACORE 3000), His-tagged receptor captured on anti-His IgG, antibody injected; 1:1 kinetic fit
[7] = target: human FcγRIIIa (recombinant, Example 1) (human) (UniProt P08637); assay: as above
[8] = target: human FcγRIIa (recombinant, Example 1; allotype not stated) (human) (UniProt P12318); assay: … direct binding (avidity) assay: biotinylated test antibody and recombinant His-tagged FcgRIIa on donor and acceptor beads

Chain of human FcγRIIa (recombinant, Example 1; allotype not stated) (human) (P12318 36-218 limits assumed): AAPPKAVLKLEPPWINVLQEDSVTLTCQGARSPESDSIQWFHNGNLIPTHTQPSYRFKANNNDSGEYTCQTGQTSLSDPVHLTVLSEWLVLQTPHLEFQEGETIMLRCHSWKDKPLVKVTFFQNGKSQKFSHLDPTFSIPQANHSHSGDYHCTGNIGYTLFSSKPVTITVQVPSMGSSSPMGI
Chain of human FcγRI (recombinant, polyhistidine-tagged) (human) (P12314 16-288 limits assumed): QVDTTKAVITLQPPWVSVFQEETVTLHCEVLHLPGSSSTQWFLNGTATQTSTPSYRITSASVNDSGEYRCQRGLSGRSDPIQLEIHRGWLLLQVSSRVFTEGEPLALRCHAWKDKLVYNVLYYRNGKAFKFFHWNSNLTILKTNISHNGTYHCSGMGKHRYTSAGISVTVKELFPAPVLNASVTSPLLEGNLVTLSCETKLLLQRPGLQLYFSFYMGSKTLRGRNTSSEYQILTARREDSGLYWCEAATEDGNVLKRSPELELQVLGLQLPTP
Chain of human FcγRIIIa (recombinant, Example 1) (human) (P08637 17-208 F176V limits assumed): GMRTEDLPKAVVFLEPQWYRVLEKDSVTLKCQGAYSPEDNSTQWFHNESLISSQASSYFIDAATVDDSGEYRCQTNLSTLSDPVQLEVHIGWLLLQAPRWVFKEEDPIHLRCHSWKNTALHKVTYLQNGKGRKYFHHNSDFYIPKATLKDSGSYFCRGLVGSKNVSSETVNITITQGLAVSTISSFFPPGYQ
Chain of recombinant human FcRn (transmembrane and cytoplasmic domains replaced with a poly-histidine tag) (human) (P55899 other isoform, or with tags, fused parts or gaps, form in doubt): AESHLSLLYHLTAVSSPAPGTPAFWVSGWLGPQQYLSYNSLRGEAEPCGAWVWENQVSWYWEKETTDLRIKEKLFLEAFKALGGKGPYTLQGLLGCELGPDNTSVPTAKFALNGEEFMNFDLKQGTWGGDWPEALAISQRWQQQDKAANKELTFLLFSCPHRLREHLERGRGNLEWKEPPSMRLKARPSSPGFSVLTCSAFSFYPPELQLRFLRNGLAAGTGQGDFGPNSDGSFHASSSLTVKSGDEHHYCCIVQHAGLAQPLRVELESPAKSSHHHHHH

pKd [1]	IC50 (read off the curve) [2] [µg/mL]	pKd [3]	pKd [4]	IC50 (read off the curve) [5] [µg/mL]	pKd [6]	pKd [7]	EC50 (read off the curve) [8] [µg/mL]	Substance
5.43	100							IgG1 Ag (human IgG1 N297A, aglycosylated, anti-Her2/neu construct) (antibody)
3.80	60	4.07	5.66	20				IgG2c4a (human IgG2 H268A, V309L, A330S, P331S, anti-Her2/neu construct) (antibody)
4.42	60		3.77	100				IgG2c4b (human IgG2 V234A, G237A, H268Q, V309L, A330S, P331S, anti-Her2/neu construct) (antibody)
			4.72	60	7.36	6.19		IgG2c4c (human IgG2 V234A, G237A, H268A, V309L, A330S, P331S, anti-Her2/neu construct) (antibody)
	100							IgG2c4e (human IgG2 P233S, V234A, G237A, P238S, H268A, V309L, A330S, P331S, anti-Her2/neu construct) (antibody)
3.68	80	4.02	5.57	30			0.2	IgG2m4 (human IgG2 H268Q, V309L, A330S, P331S, anti-Her2/neu construct) (antibody)
4.82	100	4.26	3.82					IgG4 A/A (human IgG4 S228P, F234A, L235A, anti-Her2/neu construct) (antibody)
	70		5.77	6	7.89		0.1	huIgG1 (wild type human IgG1 isotype antibody, anti-Her2/neu construct)
3.92	80	4.39	6.00	50			0.2	huIgG2 (wild type human IgG2 isotype antibody, anti-Her2/neu construct)
